Our source for the EC50 and Kd values is patent US20230416333A1 (SHATTUCK LABS, published 2023).

In test [1] the target is T1, CD19 expressed on the cell surface (UniProt P15391 20-556).
T1 construct: whole, on cells; also called HEK293-CD19 cells; CD19 on Daudi cells
T1 sequence (looked up): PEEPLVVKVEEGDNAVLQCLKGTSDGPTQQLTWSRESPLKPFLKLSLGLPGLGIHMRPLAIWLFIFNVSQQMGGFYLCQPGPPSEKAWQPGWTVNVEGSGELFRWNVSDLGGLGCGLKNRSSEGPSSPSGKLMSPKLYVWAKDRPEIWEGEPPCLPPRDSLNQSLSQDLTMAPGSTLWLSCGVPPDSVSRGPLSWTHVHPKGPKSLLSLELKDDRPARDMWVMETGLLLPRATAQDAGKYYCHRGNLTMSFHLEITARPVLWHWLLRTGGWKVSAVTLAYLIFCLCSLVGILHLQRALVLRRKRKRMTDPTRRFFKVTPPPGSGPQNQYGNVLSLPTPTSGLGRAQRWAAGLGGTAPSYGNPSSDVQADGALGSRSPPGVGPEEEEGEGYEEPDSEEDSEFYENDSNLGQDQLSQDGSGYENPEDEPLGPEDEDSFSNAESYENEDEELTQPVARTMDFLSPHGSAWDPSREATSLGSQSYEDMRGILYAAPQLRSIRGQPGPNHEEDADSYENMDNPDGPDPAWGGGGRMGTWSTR
The test can be described thus: flow cytometry on HEK293-CD19 cells, anti-Fc detection. A general note: A flow cytometer gives signals particle by particle.

The target in test [2] is T1, CD19 expressed on the cell surface. The test can be described thus: flow cytometry on Daudi cells; Daudi cells (CD19+), flow cytometry.
The target of test [3] is T2, recombinant CD19-His protein (human, UniProt P15391 20-291).
T2 construct: Immobilized on the Octet biosensor; also called Human CD19
T2 sequence (looked up): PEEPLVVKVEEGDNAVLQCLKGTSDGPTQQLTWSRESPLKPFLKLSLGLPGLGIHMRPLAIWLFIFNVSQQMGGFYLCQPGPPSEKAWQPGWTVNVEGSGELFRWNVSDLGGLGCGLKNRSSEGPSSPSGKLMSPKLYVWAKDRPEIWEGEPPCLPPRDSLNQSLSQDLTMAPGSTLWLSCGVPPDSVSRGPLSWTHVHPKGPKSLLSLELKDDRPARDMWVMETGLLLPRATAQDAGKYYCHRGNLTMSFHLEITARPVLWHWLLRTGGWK
The experiment in a line: Octet (ForteBio) BLI, recombinant CD19-His immobilized on biosensor. The source says: A heterodimer lacking CD19scFv was used as a negative control.
Background: Biolayer interferometry detects binding as a change in optical thickness at a sensor tip.

B1: BTN2A1/3A1-Fc-CD19scFv GADLEN protein (heterodimer with charged polarized linkers) (Fc fusion)
chain 1: QFIVVGPTDPILATVGENTTLRCHLSPEKNAEDMEVRWFRSQFSPAVFVYKGGRERTEEQMEEYRGRTTFVSKDISRGSVALVIHNITAQENGTYRCYFQEGRSYDEAILHLVVAGLGSKPLISMRGHEDGGIRLECISRGWYPKPLTVWRDPYGGVAPALKEVSMPDADGLFMVTTAVIIRDKSVRNMSCSINNTLLGQKKESVIFIPESFMPSVSPCAGSGSRKGGKRGSKYGPPCPPCPAPEFLGGPSVFLFPPKPKDQLMISRTPEVTCVVVDVSQEDPEVQFNWYVDGVEVHNAKTKPREEQFNSTYRVVSVLTVLHQDWLSGKEYKCKVSSKGLPSSIEKTISNATGQPREPQVYTLPPSQEEMTKNQVSLTCLVKGFYPSDIAVEWESNGQPENNYKTTPPVLDSDGSFFLYSRLTVDKSRWQEGNVFSCSVLHEALHNHYTQKSLSLSLGKDEGGEDGSDIQMTQTTSSLSASLGDRVTISCRASQDISKYLNWYQQKPDGTVKLLIYHTSRLHSGVPSRFSGSGSGTDYSLTISNLEQEDIATYFCQQGNTLPYTFGGGTKLEITGGGSGGGSGGGSEVKLQESGPGLVAPSQSLSVTCTVSGVSLPDYGVSWIRQPPRKGLEWLGVIWGSETTYYNSALKSRLTIIKDNSKSQVFLKMNSLQTDDTAIYYCAKHYYYGGSYAMDYWGQGTSVTVSS
chain 2: not shown
notes: The residue ranges were counted from the printed parts; also called BTN2A1/3A1-Fc-CD19scFv heterodimeric protein; human BTN2A1/3A1-Fc-CD19scFv GADLEN protein
Regarding B1, the EC50 in test [1] worked out at 0.89 nM; in test [2], 5 nM. The equilibrium dissociation constant (Kd) in test [3] is 13.8 nM.

Usually EC50 stands for the midpoint of the concentration-response curve. Low values mean higher potency in that assay, high ones lower potency in that assay. As usually defined, the Kd is the free concentration of one partner at which half of the binding sites on the other are occupied at equilibrium, for simple one-to-one binding.
